Assay results reported in IntAct's records for PubMed 21217703.

B1: Telomeric repeat-binding factor 2 (Homo sapiens), Q15554 (parent)
chain: MAAGAGTAGPASGPGVVRDPAASQPRKRPGREGGEGARRSDTMAGGGGSSDGSGRAAGRRASRSSGRARRGRHEPGLGGPAERGAGEARLEEAVNRWVLKFYFHEALRAFRGSRYGDFRQIRDIMQALLVRPLGKEHTVSRLLRVMQCLSRIEEGENLDCSFDMEAELTPLESAINVLEMIKTEFTLTEAVVESSRKLVKEAAVIICIKNKEFEKASKILKKHMSKDPTTQKLRNDLLNIIREKNLAHPVIQNFSYETFQQKMLRFLESHLDDAEPYLLTMAKKALKSESAASSTGKEDKQPAPGPVEKPPREPARQLRNPPTTIGMMTLKAAFKTLSGAQDSEAAFAKLDQKDLVLPTQALPASPALKNKRPRKDENESSAPADGEGGSELQPKNKRMTISRLVLEEDSQSTEPSAGLNSSQEAASAPPSKPTVLNQPLPGEKNPKVPKGKWNSSNGVEEKETWVEEDELFQVQAAPDEDSTTNITKKQKWTVEESEWVKAGVQKYGEGNWAAISKNYPFVNRTAVMIKDRWRTMKRLGMN
partner: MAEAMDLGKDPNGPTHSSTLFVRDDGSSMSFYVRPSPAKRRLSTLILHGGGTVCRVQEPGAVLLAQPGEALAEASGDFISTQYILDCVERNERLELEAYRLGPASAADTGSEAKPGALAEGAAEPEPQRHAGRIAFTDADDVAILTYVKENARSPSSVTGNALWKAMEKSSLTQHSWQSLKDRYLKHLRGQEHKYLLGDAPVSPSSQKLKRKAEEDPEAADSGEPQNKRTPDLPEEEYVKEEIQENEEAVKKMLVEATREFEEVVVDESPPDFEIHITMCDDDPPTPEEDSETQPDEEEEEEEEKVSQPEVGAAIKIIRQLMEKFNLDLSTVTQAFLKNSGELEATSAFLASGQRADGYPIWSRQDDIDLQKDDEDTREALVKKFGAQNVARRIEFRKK
B2: Telomeric repeat-binding factor 2-interacting protein 1 (Homo sapiens), Q9NYB0 (parent)
chain: B1 partner
B3: DNA-binding protein RAP1 (Saccharomyces cerevisiae), P11938 (parent)
chain: MSSPDDFETAPAEYVDALDPSMVVVDSGSAAVTAPSDSAAEVKANQNEENTGATAAETSEKVDQTEVEKKDDDDTTEVGVTTTTPSIADTAATANIASTSGASVTEPTTDDTAADEKKEQVSGPPLSNMKFYLNRDADAHDSLNDIDQLARLIRANGGEVLDSKPRESKENVFIVSPYNHTNLPTVTPTYIKACCQSNSLLNMENYLVPYDNFREVVDSRLQEESHSNGVDNSNSNSDNKDSIRPKTEIISTNTNGATEDSTSEKVMVDAEQQARLQEQAQLLRQHVSSTASITSGGHNDLVQIEQPQKDTSNNNNSNVNDEDNDLLTQDNNPQTADEGNASFQAQRSMISRGALPSHNKASFTDEEDEFILDVVRKNPTRRTTHTLYDEISHYVPNHTGNSIRHRFRVYLSKRLEYVYEVDKFGKLVRDDDGNLIKTKVLPPSIKRKFSADEDYTLAIAVKKQFYRDLFQIDPDTGRSLITDEDTPTAIARRNMTMDPNHVPGSEPNFAAYRTQSRRGPIAREFFKHFAEEHAAHTENAWRDRFRKFLLAYGIDDYISYYEAEKAQNREPEPMKNLTNRPKRPGVPTPGNYNSAAKRARNYSSQRNVQPTANAASANAAAAAAAAASNSYAIPENELLDEDTMNFISSLKNDLSNISNSLPFEYPHEIAEAIRSDFSNEDIYDNIDPDTISFPPKIATTDLFLPLFFHFGSTRQFMDKLHEVISGDYEPSQAEKLVQDLCDETGIRKNFSTSILTCLSGDLMVFPRYFLNMFKDNVNPPPNVPGIWTHDDDESLKSNDQEQIRKLVKKHGTGRMEMRKRFFEKDLL
B4: DNA-binding protein rap1 (Schizosaccharomyces pombe (strain ATCC 38366 / 972)), Q96TL7 (parent)
chain: MSFTFTKSDGSSILFAVSKNFEHIRGFKNAIDCFKGKIEFLSFDKVDPTKHDYYLVAEDERVSDLDIPKGFFERNPEFRHKMLKIAWITQCIEQGKLLPTESFEVELNQDDVNRTHDGFRKRELFTLEDEKILIDHVHKNDINRFGTKVYEELARKYPQHSLESWRQHYKYMKKRLPPVSDSDESNYCQRIIVKPYSSQKDYTQSTHEQTLSSPISKSASVSKSENKALVNNKRYSDSYFYFSKMRRISIDVDYVDEDLNLINAYLSQFGKKRSLNELCALLSRRFSNRHTFSEWRALFMHFFPFINSEGVDPAILSDRETSAMLDETSDNEVADIDDQMIERKYLFSASEPNTVKSTNRLIFSERKAYAADDSIDNTPSKVPIVNSLSDPRTNRPFFYSNPDSMYRSISNPLHLVDSQHLSPLNRKTHFNNPIGQPQFTCLDDHEKTLRETSFRSLDDMSLRKSNSDNIFVKPGEDLEIPLLSDYSDSENISEKSSDDEEAFEKQVTSSYSSPIKVKSQGKSSKGSSGLDVREHEGSDDDAEVFVDRSPESFGATKVAHTSLEGNAASHKKVEENMQQPVTKKQKKYRMVNEEAHTGPTIIIPSDNNEKVTTLPAGHVPSEEKGKFINLAMHELQNEVSILRSSVNHREVDEAIDNILRYTNSTEQQFLEAMESTGGRVRIAIAKLLSKQTS
partner: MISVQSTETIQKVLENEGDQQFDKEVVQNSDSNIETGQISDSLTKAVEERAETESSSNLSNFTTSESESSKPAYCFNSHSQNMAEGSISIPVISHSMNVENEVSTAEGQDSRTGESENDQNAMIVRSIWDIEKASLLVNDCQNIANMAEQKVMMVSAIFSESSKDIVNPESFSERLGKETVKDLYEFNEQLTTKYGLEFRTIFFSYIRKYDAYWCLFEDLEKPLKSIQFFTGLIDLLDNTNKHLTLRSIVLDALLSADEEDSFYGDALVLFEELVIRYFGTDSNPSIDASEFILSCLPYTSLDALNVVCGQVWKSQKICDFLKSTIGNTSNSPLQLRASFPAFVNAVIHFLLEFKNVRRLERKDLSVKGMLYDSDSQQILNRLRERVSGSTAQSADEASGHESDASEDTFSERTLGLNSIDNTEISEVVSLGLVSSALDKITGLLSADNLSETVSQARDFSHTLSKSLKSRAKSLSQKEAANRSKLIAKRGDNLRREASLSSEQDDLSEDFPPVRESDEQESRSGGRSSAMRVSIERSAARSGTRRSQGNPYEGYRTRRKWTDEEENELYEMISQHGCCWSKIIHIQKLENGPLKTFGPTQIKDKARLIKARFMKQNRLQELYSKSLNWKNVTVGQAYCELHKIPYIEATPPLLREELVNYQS
B5: Telomere length regulator taz1 (Schizosaccharomyces pombe (strain ATCC 38366 / 972)), P79005 (parent)
chain: B4 partner
partner: B4 chain

Variants of: B1
Conditions: with te2ip_human TERF2IP

| Variant | effect of a mutation on the interaction |
| --- | --- |
| L330E | disrupting interaction strength |
| L330R | disrupting interaction strength |

Variants of: B2
Conditions: with terf2_human TERF2, Q15554

| Variant | effect of a mutation on the interaction |
| --- | --- |
| MAEAMDLGKDPNGPTHSSTLFVRDDGSSMSFYVRPSPAKRRLSTLILHGGGTVCRVQEPGAVLLAQPGEALAEASGDFISTQYILDCVERNERLELEAYRLGPASAADTGSEAKPGALAEGAAEPEPQRHAGRIAFTDADDVAILTYVKENARSPSSVTGNALWKAMEKSSLTQHSWQSLKDRYLKHLRGQEHKYLLGDAPVSPSSQKLKRKAEEDPEAADSGEPQNKRTPDLPEEEYVKEEIQENEEAVKKMLVEATREFEEVVVDESPPDFEIHITMCDDDPPTPEEDSETQPDEEEEEEEEKVSQPEVGAAIKIIRQLMEKFNLDLSTVTQARLKNSGELEATSAFLASGQRADGYPIWSRQDDIDLQKDDEDTREALVKKFGAQNVARRIEFRKK [F336R] | disrupting interaction |
| MAEAMDLGKDPNGPTHSSTLFVRDDGSSMSFYVRPSPAKRRLSTLILHGGGTVCRVQEPGAVLLAQPGEALAEASGDFISTQYILDCVERNERLELEAYRLGPASAADTGSEAKPGALAEGAAEPEPQRHAGRIAFTDADDVAILTYVKENARSPSSVTGNALWKAMEKSSLTQHSWQSLKDRYLKHLRGQEHKYLLGDAPVSPSSQKLKRKAEEDPEAADSGEPQNKRTPDLPEEEYVKEEIQENEEAVKKMLVEATREFEEVVVDESPPDFEIHITMCDDDPPTPEEDSETQPDEEEEEEEEKVSQPEVGAAIKIRRQLMEKFNLDLSTVTQAFLKNSGELEATSAFLASGQRADGYPIWSRQDDIDLQKDDEDTREALVKKFGAQNVARRIEFRKK [I318R] | disrupting interaction |

Variants of: B3
Conditions: with sir3_yeast SIR3, P06701
Sequence of sir3_yeast SIR3, P06701 (P06701 whole entry): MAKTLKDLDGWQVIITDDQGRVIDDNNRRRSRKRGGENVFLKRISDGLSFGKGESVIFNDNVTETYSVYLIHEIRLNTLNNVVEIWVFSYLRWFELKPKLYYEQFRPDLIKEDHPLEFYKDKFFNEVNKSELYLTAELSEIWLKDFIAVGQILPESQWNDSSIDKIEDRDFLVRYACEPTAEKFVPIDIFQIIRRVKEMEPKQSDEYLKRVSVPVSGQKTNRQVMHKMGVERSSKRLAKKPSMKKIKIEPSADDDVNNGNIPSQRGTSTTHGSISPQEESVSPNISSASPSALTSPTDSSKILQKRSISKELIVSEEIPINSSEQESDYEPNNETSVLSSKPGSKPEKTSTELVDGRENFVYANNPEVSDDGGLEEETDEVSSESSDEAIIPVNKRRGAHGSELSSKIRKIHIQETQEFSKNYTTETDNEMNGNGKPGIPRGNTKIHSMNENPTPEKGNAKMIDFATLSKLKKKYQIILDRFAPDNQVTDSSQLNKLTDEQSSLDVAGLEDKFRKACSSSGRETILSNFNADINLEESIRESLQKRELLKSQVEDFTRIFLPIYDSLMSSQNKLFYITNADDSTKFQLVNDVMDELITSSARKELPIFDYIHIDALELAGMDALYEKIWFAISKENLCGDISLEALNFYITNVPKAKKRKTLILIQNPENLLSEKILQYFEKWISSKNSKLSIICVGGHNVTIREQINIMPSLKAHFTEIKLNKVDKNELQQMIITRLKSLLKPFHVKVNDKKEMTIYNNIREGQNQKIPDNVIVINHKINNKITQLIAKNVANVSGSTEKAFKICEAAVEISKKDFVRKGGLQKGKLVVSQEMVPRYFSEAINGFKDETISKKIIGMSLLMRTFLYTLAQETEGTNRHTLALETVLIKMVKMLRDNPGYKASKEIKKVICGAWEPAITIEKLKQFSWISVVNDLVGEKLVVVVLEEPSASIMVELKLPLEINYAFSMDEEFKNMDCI

| Variant | effect of a mutation on the interaction |
| --- | --- |
| A733R | disrupting interaction |
| V737R | disrupting interaction |
| G760R | disrupting interaction |
| P730R | decreasing interaction |
| L755R | disrupting interaction |

Variants of: B4
Conditions: with taz1_schpo taz1, P79005

| Variant | effect of a mutation on the interaction |
| --- | --- |
| I655R | disrupting interaction |
| V651R | decreasing interaction |

Variants of: B5
Conditions: with rap1_schpo rap1, Q96TL7

| Variant | effect of a mutation on the interaction |
| --- | --- |
| L383R | disrupting interaction |
| L383A | disrupting interaction |
| I379A | disrupting interaction strength |
| I379R | disrupting interaction strength |
| R386E | disrupting interaction |
| R384E | decreasing interaction |
| L380R | decreasing interaction |

Variants of: B5
Conditions: with rap1_schpo rap1, Q96TL7
Remark: another data set of the same source

| Variant | effect of a mutation on the interaction |
| --- | --- |
| I379R | disrupting interaction |
| V387R | decreasing interaction |
